For the series, the target named is T1, Rme1 (Trichoderma reesei) (UniProt G0RR27).
T1 sequence: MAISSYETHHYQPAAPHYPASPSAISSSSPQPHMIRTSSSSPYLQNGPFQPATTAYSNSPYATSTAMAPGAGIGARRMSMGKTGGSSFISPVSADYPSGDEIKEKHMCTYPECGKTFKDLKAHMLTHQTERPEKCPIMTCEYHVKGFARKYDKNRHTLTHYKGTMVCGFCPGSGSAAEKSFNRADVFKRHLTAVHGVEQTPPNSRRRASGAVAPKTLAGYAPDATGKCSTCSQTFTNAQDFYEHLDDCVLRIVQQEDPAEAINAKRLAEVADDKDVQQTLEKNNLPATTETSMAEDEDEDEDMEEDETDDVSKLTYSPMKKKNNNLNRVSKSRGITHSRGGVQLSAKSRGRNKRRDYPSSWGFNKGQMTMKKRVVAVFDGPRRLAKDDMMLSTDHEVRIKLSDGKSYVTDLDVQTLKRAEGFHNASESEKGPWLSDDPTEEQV
The series is described as follows: EMSA. The note with it: 20 mM Tris-HCl pH 7.4, 50 mM KCl, 5% glycerol, 1 mM DTT, 50 µg/mL BSA, 50 µM zinc sulfate; 100 ng probe, 25 min at room temperature; 6% native PAGE at 4 °C. Background: In EMSA bound probe runs differently from free probe, usually more slowly.

The record followed here is article PMC12470938.

Regarding “AGCAGCAGCGGCAATAACAAATACAGTAACAAATGGGGACCAGAATGCGAATTTGAAACGACAGGAACGAACACGGAGGAGGGGGCGGGGGTTGGCACGTTGGCTAAAGAATATTTCTACCTATCCACAGATGTAGC (double strand) [Pswo probe]”, the binding result is on record as “no binding”.
